Experimental data: patent US11833164B2, “Methods of treating Fabry disease in patients having a mutation in the GLA gene” (Amicus Therapeutics, Inc., priority 2019, dated 2023)
Residue numbers refer to the chain shown, from its start. In names and notes the source's numbering stands.

B1: K326Q (protein)
chain: MQLRNPELHLGCALALRFLALVSWDIPGARALDNGLARTPTMGWLHWERFMCNLDCQEEPDSCISEKLFMEMAELMVSEGWKDAGYEYLCIDDCWMAPQRDSEGRLQADPQRFPHGIRQLANYVHSKGLKLGIYADVGNKTCAGFPGSFGYYDIDAQTFADWGVDLLKFDGCYCDSLENLADGYKHMSLALNRTGRSIVYSCEWPLYMWPFQKPNYTEIRQYCNHWRNFADIDDSWKSIKSILDWTSFNQERIVDVAGPGGWNDPDMLVIGNFGLSWNQQVTQMALWAIMAAPLFMSNDLRHISPQAKALLQDKDVIAINQDPLGQQGYQLRQGDNFEVWERPLSGLAWAVAMINRQEIGGPRSYTIAVASLGKGVACNPACFITQLLPVKRKLGFYEWTSRLRSHINPTGTVLLQLENTMQMSLKDLL
B2: Q330H (protein)
chain: B1 chain with Q326K, Q330H
B3: K326R (protein)
chain: B1 chain with Q326R
B4: L331V (protein)
chain: B1 chain with Q326K, L331V
B5: R332G (protein)
chain: B1 chain with Q326K, R332G
B6: Y329N (protein)
chain: B1 chain with Q326K, Y329N
B7: R332I (protein)
chain: B1 chain with Q326K, R332I
B8: Y329H (protein)
chain: B1 chain with Q326K, Y329H
B9: R332S (protein)
chain: B1 chain with Q326K, R332S
B10: Q330E (protein)
chain: B1 chain with Q326K, Q330E
B11: Y329C (protein)
chain: B1 chain with Q326K, Y329C
B12: Q330K (protein)
chain: B1 chain with Q326K, Q330K
B13: Q327P (protein)
chain: B1 chain with Q326K, Q327P
B14: R332T (protein)
chain: B1 chain with Q326K, R332T
B15: Q327H (protein)
chain: B1 chain with Q326K, Q327H
B16: L331H (protein)
chain: B1 chain with Q326K, L331H
B17: K326T (protein)
chain: B1 chain with Q326T
B18: L331P (protein)
chain: B1 chain with Q326K, L331P
B19: Y329F (protein)
chain: B1 chain with Q326K, Y329F
B20: L331R (protein)
chain: B1 chain with Q326K, L331R
B21: Y329D (protein)
chain: B1 chain with Q326K, Y329D

Tested on: mutant form of α-Gal A expressed in HEK-293 cells
Experiment: HEK assay (GLP HEK / Migalastat Amenability Assay): α-Gal A activity in lysates of transiently transfected HEK-293 cells incubated with or without 10 μM migalastat
Format: cell-based, human
Settings: for Absolute increase (% WT) / Relative increase: 10 μM migalastat versus baseline; for Baseline α-Gal A activity (% WT): absence of migalastat; for Baseline α-Gal A activity (% WT) / 10 μM migalastat α-Gal A activity (% WT): percentage of baseline wild-type α-Gal A activity; for 10 μM migalastat α-Gal A activity: incubated 5 days with 10 μM migalastat; for 10 μM migalastat α-Gal A activity (% WT): with 10 μM migalastat, 5 days
Procedure, shortened: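 HEK-293 cells transiently transfected with mutant α-Gal A and incubated with or without 10 μM migalastat; lysate activity given as nmol free 4-MU released per mg protein per hour. Values are mean±SEM.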

[1] = lysates of HEK-293 cells transiently transfected with the mutant form, incubated 5 days in absence of migalastat, mean ± SEM
[2] = lysates of HEK-293 cells transiently transfected with the mutant form, mean ± SEM

Row | Molecule | Absolute increase (% WT) | Relative increase | Baseline α-Gal A activity (% WT) (mean ± SEM) | Baseline α-Gal A activity [1] | 10 μM migalastat α-Gal A activity [2] | 10 μM migalastat α-Gal A activity (% WT) (mean ± SEM) | Baseline α-Gal A activity (nmol/mg/hr) [1]
1 | B1 | 26.1 % WT | 1.3 | 78 ± 3 % WT | 22075 ± 1209 nmol/mg/h | 29168 ± 1869 nmol/mg/h | 104.1 ± 5.7 % WT | –
2 | B2 | 40.8 % WT | 2.2 | 33.1 ± 2.8 % WT | 9296 ± 649 nmol/mg/h | 20752 ± 592 nmol/mg/h | 73.9 ± 3.6 % WT | –
3 | B3 | 48.0 % WT | 1.8 | 61.7 ± 3.4 % WT | 17744 ± 923 nmol/mg/h | 31690 ± 1112 nmol/mg/h | 109.7 ± 2.9 % WT | –
4 | B4 | 28.0 % WT | 1.3 | 89.4 ± 4.5 % WT | 25163 ± 801 nmol/mg/h | 33050 ± 967 nmol/mg/h | 117.4 ± 5.6 % WT | –
5 | B5 | 23.4 % WT | 1.3 | 78.8 ± 2.7 % WT | 33043 ± 1431 nmol/mg/h | 42737 ± 1959 nmol/mg/h | 102.3 ± 4.6 % WT | –
6 | B6 | 15.6 % WT | 1.7 | 21.8 ± 1.5 % WT | 6448 ± 436 nmol/mg/h | 11035 ± 429 nmol/mg/h | 37.4 ± 1.2 % WT | –
7 | B7 | 43.2 % WT | 1.7 | 63.3 ± 4.5 % WT | 24614 ± 1678 nmol/mg/h | 41550 ± 2461 nmol/mg/h | 106.6 ± 6.4 % WT | –
8 | B8 | 16.2 % WT | 1.4 | 47.2 ± 3.8 % WT | 13757 ± 963 nmol/mg/h | 18672 ± 772 nmol/mg/h | 63.4 ± 2.6 % WT | –
9 | B9 | 20.5 % WT | 1.2 | 87.6 ± 6.6 % WT | 33936 ± 2528 nmol/mg/h | 41700 ± 2778 nmol/mg/h | 108.1 ± 8.4 % WT | –
10 | B10 | 19.9 % WT | 1.7 | 26.4 ± 1.5 % WT | 7500 ± 345 nmol/mg/h | 13086 ± 589 nmol/mg/h | 46.4 ± 2.6 % WT | –
11 | B11 | 7.8 % WT | 1.3 | 31.2 ± 1.5 % WT | 9148 ± 414 nmol/mg/h | 11442 ± 480 nmol/mg/h | 38.9 ± 1.6 % WT | –
12 | B12 | 21.1 % WT | 1.3 | 71 ± 2.7 % WT | 20289 ± 720 nmol/mg/h | 26149 ± 1074 nmol/mg/h | 92.1 ± 4.2 % WT | –
13 | B13 | 36.4 % WT | 2.4 | 26.2 ± 1.8 % WT | 7775 ± 561 nmol/mg/h | 18612 ± 1075 nmol/mg/h | 62.6 ± 3.1 % WT | –
14 | B14 | 36.2 % WT | 1.5 | 73.3 ± 2.9 % WT | 26141 ± 1254 nmol/mg/h | 39363 ± 2176 nmol/mg/h | 109.5 ± 4.7 % WT | –
15 | B15 | 7.4 % WT | – | – | – | 2197 ± 226 nmol/mg/h | 7.4 ± 0.7 % WT | BLD (“BLD” indicates that the mean α-Gal A activity was below the limit of detection (<142 nmol/mg/hr))
16 | B16 | 25.9 % WT | 1.6 | 42 ± 3.2 % WT | 11743 ± 634 nmol/mg/h | 19003 ± 791 nmol/mg/h | 67.9 ± 4.3 % WT | –
17 | B17 | 26.4 % WT | 1.4 | 69.6 ± 2.4 % WT | 19442 ± 739 nmol/mg/h | 26653 ± 877 nmol/mg/h | 96 ± 3.7 % WT | –
18 | B18 | 3.1 % WT | 6.5 | 0.6 ± 0.1 % WT | 157 ± 20 nmol/mg/h | 1029 ± 32 nmol/mg/h | 3.7 ± 0.2 % WT | –
19 | B19 | 16.6 % WT | 1.5 | 30.6 ± 1.5 % WT | 10368 ± 646 nmol/mg/h | 15566 ± 603 nmol/mg/h | 47.1 ± 2.8 % WT | –
20 | B20 | 23.3 % WT | 1.6 | 33.2 ± 1.5 % WT | 9725 ± 634 nmol/mg/h | 15841 ± 639 nmol/mg/h | 56.5 ± 3.2 % WT | –
21 | B21 | 12.5 % WT | 3.9 | 4.2 ± 0.2 % WT | 1249 ± 66 nmol/mg/h | 4917 ± 181 nmol/mg/h | 16.7 ± 0.6 % WT | –
